From the supplement of paper PMC9170038

Test system: MS2 coat protein
Assay: apparent KD of MS2 coat protein; designed switch direction (-1 OFF switch, 1 ON switch): -1; higher = weaker reporter binding
Outline: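 The reported apparent KD is a per-design median over clusters, from curve fits of normalised cluster fluorescence. Protein titrations used SNAP-549-labelled MS2 coat protein, doubled from 0.7 or 1.5 nM to 3 µM, in Tris-HCl pH 7.5 buffer with KCl, MgCl2, BSA, DTT, tRNA and Tween-20, with no input, 200 uM small-molecule ligand, or an oligonucleotide input. The RNA switches were transcribed on Illumina chips by stalled E. coli RNA polymerase.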

[1] = input ligand: microRNA oligo, concentration not stated
[2] = Eterna round: R95, input ligand: microRNA oligo, concentration not stated

Row | Sequence | apparent KD of MS2 coat protein (input ligand: FMN 200 uM) | apparent KD of MS2 coat protein [1] | apparent KD of MS2 coat protein (input ligand: none) | apparent KD of MS2 coat protein [2]
1 | GGCGUGUCGCGAGGAUAUUCAAACGGACAUGAGGAUCACCCAUGUGAAAGGAAUGUCGAGGUUAUGGAGAAGGCGUUCACGCCG [Qubizace] (Eterna round: R96, puzzle: Exclusion NG 2) | 549 nM | 92 nM | 153 nM | –
2 | GGCUUCUGAGGAUAUUAACACCGUUACAUGAGGAUCACCCAUGUUCCUCACGCUACGGCUUAAGAAGGCAGAUGAA [Eternabot (Original) Solution 32] (Eterna round: R97, puzzle: Exclusion 5) | 29.6 nM | – | 64.9 nM | –
3 | GGGAAGAACCAACAAGUAGACAUGAGGAUCACCCAUGUAGACUUCAUGUGCACGCAAAGCGUGCAAGCUCGUCUUAU [AK-miRNA-r3-14.4] (Eterna round: R97, puzzle: Sensor, turn-off variant 1) | 22.9 nM | – | 19.8 nM | –
4 | GGGCCCGGAGGAUAUACAAUCCCGGGUUGAAAGGCCCGGGUACAUGAGGAUCACCCAUGUAGAAGGCCGGGCCC [-42.3, -39.6 kcal A 24%, 5c bis,0] (Eterna round: R97, puzzle: Exclusion 2) | 20.9 nM | – | 13.8 nM | –
5 | GGGCCCGGAGGAUAUACAUGAGGAUCACCCAUGUAGGGCUCGGGUAUUCUCGGGCUCUGUAGAAGGCCGGGCCC [-39.6, -36.7 kcal, A 19%, 5,0] (Eterna round: R97, puzzle: Exclusion 3) | 17.5 nM | – | 18.6 nM | –
6 | GGGCCCGGUGUGAGGAUAUGUUUGGGUAAACCCGGGCAGAAGGCACAUGAGGAUCACCCAUGUAAGCCGGGCCC [-37.5, -35.4 kcal, A 23%, 5bbis-0] (Eterna round: R97, puzzle: Brourd's mod of Exclusion 4) | 14.7 nM | – | 19.2 nM | –
7 | GGGUAGGGAGGAUAUCCAAUAUAUGACAUGAGGAUCACCCAUGUUUCCACUCGUACCUCCGGAGAAGGCCCAUCCC [Ex5 #14] (Eterna round: R97, puzzle: Exclusion 5) | 25.6 nM | – | 21.4 nM | –
8 | GGGUAGUGAGGAUAUACAUGAGGAUCACCCAUGUUUGCGACACUGGAGGCGUCUCUAUGUAGAAGGCGCGGCCG [EX3 B.16] (Eterna round: R97, puzzle: Exclusion 3) | 30.4 nM | – | 18.9 nM | –
9 | GGGUCACAUGAGGAUCACCCAUGUGAGGAUAUGAUACUAUGUACUUCGGUACAUAGUAUCAGAAGGCACAUCCC [Ex1-3: 17] (puzzle: Exclusion 1) | – | – | – | 18.6 nM
10 | GGGUGACAGUUAGGAUAUCUUAGCACGCCGUAGAGAGAAGGGACAUGAGGAUCACCCAUGUUGUAGUGCCUCAAACACUGCUAG [Beintitian] (Eterna round: R96, puzzle: Exclusion NG 1) | 45.7 nM | 31.9 nM | 48.3 nM | –
11 | GGGUGACAUGAGGAUCACCCAUGUGAGGAUAUCUGGAUACUCUUUAUUUUAGAUAUCCAGAGAAGGCACACCCU [Ex1-3: 6Z] (puzzle: Exclusion 1) | – | – | – | 356 nM
12 | GGGUGCAGGCUGAGGUCCUACAUGAGGAUCACCCAUGUGGUCCGGUGACGUGAGUCGCCGGACUUGGCUCGUCUUGU [salish99_S_TOV1_R5_011] (Eterna round: R97, puzzle: Sensor, turn-off variant 1) | 42.2 nM | – | 52.1 nM | –
13 | GGGUGUGAAGGAUAUACAUGAGGAUCACCCAUGUGAGAGGAGAAUGUUGAGGAGGUUGGUAGAAGGUCAGGAGG [JR_Exclusion3_Sub010] (Eterna round: R96, puzzle: Exclusion 3) | 202 nM | 105 nM | 165 nM | –
14 | GGGUGUGAAGGAUAUACAUGAGGAUCACCCAUGUGAGAGGAGAAUGUUGAGGAGGUUGGUAGAAGGUCAGGAGG [JR_Exclusion3_Sub010] (puzzle: Exclusion 3) | – | – | – | 79.1 nM
